Source: paper PMC5880071, “Self-sustained enzymatic cascade for the production of 2,5-furandicarboxylic acid from 5-methoxymethylfurfural” (Biotechnology for Biofuels, 2018)

Assays:
[1] = biological target: T1, UPO (unspecific peroxygenase), PaDa-I variant (Cyclocybe aegerita, UniProt B9W4V6, V100A/L110F/V118I/I291V/F354L); experiment: GC-MS product analysis (FFCA formed); type: biochemical; conditions: 1.5 mM MMFA, 5 µM UPO, 1.5 mM H2O2; ether cleavage
T1 construct: gene APO1

[2] = substrate: O=Cc1ccc(CO)o1; experiment: purified protein; type: biochemical, Pleurotus eryngii; conditions: O2 co-substrate (air), sodium phosphate pH 7.0 (50 mM in Table 1, 100 mM in Methods), 25 °C
[3] = substrate: COCc1ccc(C=O)o1; experiment: purified protein; type: biochemical, Pleurotus eryngii; conditions: O2 co-substrate (air), sodium phosphate pH 7.0 (50 mM in Table 1, 100 mM in Methods), 25 °C
[4] = substrate: O=Cc1ccc(C=O)o1; experiment: purified protein; conditions: O2 co-substrate (air), sodium phosphate pH 7.0 (50 mM in Table 1, 100 mM in Methods), 25 °C

T1 sequence (B9W4V6 44-371 V100A/L110F/V118I/I291V/F354L): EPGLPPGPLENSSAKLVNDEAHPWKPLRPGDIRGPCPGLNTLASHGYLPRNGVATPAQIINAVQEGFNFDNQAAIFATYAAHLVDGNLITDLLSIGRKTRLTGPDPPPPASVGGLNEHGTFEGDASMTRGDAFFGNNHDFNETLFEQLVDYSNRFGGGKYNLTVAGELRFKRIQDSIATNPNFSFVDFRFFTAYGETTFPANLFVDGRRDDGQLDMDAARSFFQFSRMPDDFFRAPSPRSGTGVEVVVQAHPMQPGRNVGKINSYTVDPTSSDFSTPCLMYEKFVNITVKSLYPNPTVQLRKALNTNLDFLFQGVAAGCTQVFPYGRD

COCc1ccc(C(=O)O)o1 [MMFA, 5-(Methoxymethyl)-2-furancarboxylic acid]
GC-MS product analysis (FFCA formed) [1]: UPO is indeed capable to cleave the ether bond of MMFA

B1: AAO (aryl-alcohol oxidase) (Pleurotus eryngii) (protein)
chain: ADFDYVVVGAGNAGNVVAARLTEDPDVSVLVLEAGVSDENVLGAEAPLLAPGLVPNSIFDWNYTTTAQAGYNGRSIAYPRGRMLGGSSSVHYMVMMRGSTEDFDRYAAVTGDEGWNWDNIQQFVRKNEMVVPPADNHNTSGEFIPAVHGTNGSVSISLPGFPTPLDDRVLATTQEQSEEFFFNPDMGTGHPLGISWSIASVGNGQRSSSSTAYLRPAQSRPNLSVLINAQVTKLVNSGTTNGLPAFRCVEYAEQEGAPTTTVCAKKEVVLSAGSVGTPILLQLSGIGDENDLSSVGIDTIVNNPSVGRNLSDHLLLPAAFFVNSNQTFDNIFRDSSEFNVDLDQWTNTRTGPLTALIANHLAWLRLPSNSSIFQTFPDPAAGPNSAHWETIFSNQWFHPAIPRPDTGSFMSVTNALISPVARGDIKLATSNPFDKPLINPQYLSTEFDIFTMIQAVKSNLRFLSGQAWADFVIRPFDPRLRDPTDDAAIESYIRDNANTIFHPVGTASMSPRGASWGVVDPDLKVKGVDGLRIVDGSILPFAPNAHTQGPIYLVGKQGADLIKADQ
Km [2]: 1.6 ± 0.2 mM
kcat [2]: 0.335 ± 0.01 s⁻¹
kcat/Km [2]: 215 ± 20 M⁻¹ s⁻¹
Km [3]: 60.8 ± 5.5 mM
kcat [3]: 0.263 ± 0.01 s⁻¹
kcat/Km [3]: 5.83 ± 0.333 M⁻¹ s⁻¹
Km [4]: 3.3 ± 0.2 mM
kcat [4]: 0.523 s⁻¹
kcat/Km [4]: 157 M⁻¹ s⁻¹
